Results: the domain aggregation screens of Martell et al. (2025)

Experiment: soluble fraction after stress (log2 fold change); higher = more stays soluble; pooled small domains, quantitative proteomics
Details: stress: 50 degC
In short: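 Each library was heated to 50°C as a stress step. The libraries, made up of small protein domains, were pooled and analysed at high throughput by quantitative proteomics. The reported value is the base-two logarithm of the fold change in each protein's soluble amount after stress, taken as a measure of aggregation propensity. The higher the value, the more protein stays in solution.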

Row | Sequence | soluble fraction (log2)
1 | HMDRPLRTKEHFARFAGEQVVVKTSSPIDGRSSFTGTLEGMEGDDVIVEVDGSRIAIGYSLIKRAHVVG | 0.117
2 | HMGIYDQAAAAYIEFVESKNRAPKWNELIDALYKENGKDWIDRSTLHGLLRRKEFQELLAQKRKEHLV | -0.184
3 | HMPLTPATADAGRFVKQDRKYIRLLAKRYNFTHGDIKSEIDRVSAVLSSNGIDRVPLFLYKEYLEQYLAG | -1.85
4 | HMENYYMPVVAGQSEQDAKSMLNAMKLSLSIQVQEQESDSVAKGLAIGTSPAAGSQIRKGSSVILYISKGA | -0.0609
5 | HMADIGRMKELIDILNRASAVYYQGKDEIMSNFEYDKLYDELVSLEKESGLVLAGSPTQKVGY | 0.153
6 | HMYYTAPDGRKREILDAALRLIAAGGPDSLTYRRVADEAGVPLGSLTYYFEAREDLIREAFRLYIAEASR | -3.04
7 | HMPKHFIDFSEGEVVSITDGPFKGFDGAISEIDNQKGKVKVMVSMFGRDTSVELDALQVKKV | -0.107
8 | HMQSTEQVSVTVTIPPGGELRIDSDTFRVLLNGENVLDKQSGDWLMLSRDLLYLDIESAIGNGLSGNLIYT | 0.0974
9 | HMNPLSELSFEERRELFLEAAVRLFEEKGYKNTSVEDIAGELGFTKKVFYYYWKNKREIVQEIHDRGMA | -0.479
10 | HMSENDTILAKFASIINNKSLELVIFPDTAYLKGQVSTPEDKARAETVAQSLLGSKPLISLIEFE | -0.0145
11 | HMGSFISADEALAKALSHAGLDQSAIRELEMDSELDDDVPHYSIDFKSGNLEYEYEISATDGSVLKFEQD | 0.105
12 | HMIFNENLKSAREKKGLSQKEVAEAIGVAKSTYSLYESGNREPNVQTIKRIADVLNVSADVLLGL | 0.00744
13 | HMGKLQFREKLNGILELGKEKHRVLTMEDVEKYFEEDALSEEQMELVYDYLLSQKIAVTGYVKK | -0.191
14 | HMKALPSAEDVALARESGRVLSTVLQTRAETQQIDFHDDKGAVRSVTLPTTALRLLLDVLTEIGQGNAV | -0.23
15 | HMAAGLTPKQKAFADNYIKNGGNAAEAARAAGYSLKNVGANAGKLLKNPKIAAYIAEKQAELDRRNGT | 0.155
16 | HMGDFNYVMPDFRGLEAHDVSSFLNRNGFLLRPTEHEVSFTQRPGLILMHYPEPGYPFSRSSPITLVVS | -1.03
17 | HMDNLATRILKELNNNDGFLPLSDKSQPEAIYQAFGISKKSYKTAIGTLYKKRLITISENGIQLTD | -0.688
18 | HMSLGPNAYGKPATALNILRETVMGKELFDHAFKTYSKRWMFKHPSPEDFFRTMEDASAVDLDWFWR | -0.239
19 | HMAKIPASTVVEIDGAPVVVAVRVNARARSYRLSIPHSGGPLLTLPPHGKWAEAEAFLLRHHNWLAARLHR | -2.47
20 | HMRPIDEVFGFFSRPENLTVITPSNLHFNILTPRPLEMKQGAVIDYTIKIFKVPIHWRTLITTYDPPFKFV | -0.288
21 | HMPAPMISIQLNGEPRNVQPGISIAALVREIGLEPAKVAVERNREIVPRSTLGDVLIEAGDQLEIVHFVG | 0.159
22 | HMQEQIVQGIVKYFDAEKQFGFIAGDDGVDRFFNAKSIQGNAVKTGDRVRFLAISHIRGPRALKISA | -0.852
23 | HMPLLADLPNLLRKVLKQHPGRVVDVDLERGRQGREIYHVRVLQENGQVRGLFVDASTGELVS | -0.224

Row | Sequence | soluble fraction (log2)
24 | HMENDYTQAQFVQDLDSGVVREVIIIPNREAPTGYARVVFGDVVRELYATDIREVEALAREHGYEPTVED | 0.209
25 | HMIRTGEVVTGKVINVKEDQIILNIGFKSDGIITRNEYTNDNSLDLRTVVHEGDEIEAKVLKVNDGEGQVV | ≥ 0.62
26 | HMTEDNDLETIAYDILKERNLNNININVKNGVLNIYGKTETLKEKREIEKILSSLNVSKINNLIKI | 0.315
27 | HMDVKQSAAGVAGRIRFELNRTLTGQGHEKFTSASQAIGPRPAAELARRLFNSGSVVGVHVFANIVTVDLL | -0.051
28 | HMADPRFHSEIMLSKIESLLSGKADSDVSNYSIQGRSLTKMSLQELMDARESYDGLVKSEKAKLDAKY | 0.0495
29 | HMNIGSKLRYLIEEANITQRQLADALHISPSALNGYINQGKEPDYATLVRIADYFHTSTDYLLGHSNIR | -0.00171
30 | HMSFGYFQLRAKDPQKLKSVLEKIPQIQSIKEEKGDLIGYLNADMEAEELSQKLAAAKIFVTHMAKKK | -0.0166
31 | HMAHILDLMELKQILRLHMDGLSNRRISDTLGIHRNTINSYVSQFKASKHGIEELLKLSDYELAQLFP | -2.26
32 | HMKTPAPRETILSLFRQTPDGFVSGERISDELGVSRTAVWKHIRNLRQAGYQIEAIPSRGYQLQQS | -0.359
33 | HMRHKSNRRLTAAHQIEQQIQKLLMENTMEAKELKESLNFAAKDIDTVLSWLVDKDKVRINAINQYYWT | -0.767
34 | HMNFTKHPENPNFVVYRFTDPERANSFRAELIANNISFEEDTEKKKQLIYTLFAIHTKYYNQSMQINIK | -0.463
35 | HMEVLSYYGSRGQEVVNIQTKLKQWGYYKGNIDGIFGNLTYQAVREFQRKNGLKVDGIVGPETLAALGLPT | -0.187
36 | HMNILKKDKRLWDENNLNKPLLFELLENYDKEIFELLLTDKDIKAKFFVQAGESYVFKYDDFRFAIEQN | -0.702
37 | HMEKRRQEIVELVKRESEISFAELKQHFPEVSEVTLRKDLKYLDSTLQIIRIHGGAKSLPAAI | -0.362
38 | HMVTVSAVNITPKGHTTVGFTDRSVNPPSNYYLRVGESADGWTVKDADFDDEIATLEKDGVAITLKL | -0.0772
39 | HMIGILSDREAEILALLDEGLTNKAIGRRLNLAEPTVKFHLKNLYAKLGVGRRQLAVNVAKGSGLLNSD | -0.699
40 | HMGGLAVQLVHAMTDQIRSGRLKAGDKLPTEAAIMKDFGVSRTVVREAISRLQASGWVDTRHGIGTFVLHQ | -1.3
41 | HMTSRLLTPRQRYVFDTAMKEGFYDVPRRITLTELASVLDVAKSTLSAQLHRIESTVHHAYADDIRRRS | -2.35
42 | HMIQRLNVNTEVLSTYIRNSNTPIEYLRQKLPNIDKFLKGELEPTFNQVYALSKLINIPTGLLLLKEPIS | -0.995
43 | HMETALYVEDLDRAVRFYESVMGLNTMSRGVRLVALDAGEGTVLLLFLRGATTSGASFEGGWIPPH | -0.0244
44 | HMDTMQQESMDTKSILATALMELTSRKNFAKITIADITHVSGFNRQTFYYHFRDKYELLSWIY | 0.0516
45 | HMDLRIIKTKKAIKTAFLNLLKENKYHNITISAISETALINRKTFYAHYETKDELYADVIEDALRVLSP | 0.0478
46 | HMGVENDGYVLPRELKKGDTVLIADLGKEATVLSPVDRNGNVEVLAGAAKTRVKLKNLRLIE | 0.13

Row | Sequence | soluble fraction (log2)
47 | HMAKIKVFELKNQINSLIKNKIESKDIIDFIETNFGVKKSHSSALEENEANFIKNYFVHADKA | 0.195
48 | HMDSIKDQIYQILKEDILTGELRSGEQLVEQTIAARFNTSRSPVREAIKQLTGDGLVINITNKGTFVK | 0.168
49 | HMTLSDDEFEIIKSLIIDTLKEEALTINALTKKINHKEAKTIQVIRFLLDNGLVAENNLMKLFVI | -0.821
50 | HMSLSEGVSADVVADVQARLMELGYMDEDDPDGNFSESTRIAVEHFQQQAGLPVTGTVDKATLDALNSPD | 0.0669
51 | HMTSSQRDSILEFLKTRKDHPTADVVYMNVRKSFPNISLGTVYRNLTLLSDIGQIAKIRVGDGVDHFDADT | -0.526
52 | HMKNPLIIGMTKDKIIELIGMPDNIKFLDSSLSKSEVWNYDKFGKKLYIKDEKLYQIENIEE | 0.016
53 | HMSKTKDVLVQLMAERGLTQSDIARALSVRPQAVQQWVSGKTRPTGKNLEALAEFLQLPPAVIVHGP | -0.00766
54 | HMLDKEDNANAGKTLLERELSRAHLSDVEHRELAQRLHLASEQELYIKIGSGDLSIIQALNRAKEFKDT | -0.0156
55 | HMIHTYVETRKVGNNDGLIRVDNKYYRVPQHLVGMKVQIQIDEATISVLQGGVMVATLDKTADVFNPQA | -0.782
56 | HMLIADSDALRSQIESILNGNPNEVASFRAGKESLMGWFVGQVMRSTGGKADPKRTRELLQELLTK | -0.102
57 | HMSSHSAEAVRHRIKSMIDHEARDGDVLSDDRIVELLNQAGIDIARRTVAKYREALRIPSSVERKRRLKA | 0.0377
58 | HMKSNKEKIYDFIQMHDTAEKEGGVSTTYIAQALSLQRTNVSSLLNALVEEGRIHKSNGRPVLYSIAG | 0.0955
59 | HMEEDDGVDFHERLTELNDEQVYYLINTEPAKVIALALDQLGQKRKINIMNRFNPDMKHSIIMELGKL | -0.516
60 | HMPREVKLPPDLLDALEASPEAKAFFLQLSYTHQKEYAQWIEEAKQEATRQRRLEKTVQMLLEGRRT | -0.0798
61 | HMKGDYWIIDLDKNYQYAIISEPDRQYLWILSRSPNMDTQTLETLKEKIRSKGFDLTYLKQTL | -0.844
62 | HMEWNREQLEQIVLQHIRKHGFITRATYTELTGRLKNSALADLKSFAAEGIIKRVGRGNQMHFIVPL | -2.42
63 | HMAPIEVPYNVFRQQVVEGNVESVATRADTVQGYFETPVTLPARPDAAAAEPVTVERFSTTLPSF | 0.142
64 | HMQISDEAALLAIVDRVIADNQGPLANYLGGKQSLLGWFVGQVMRATRGQAIPAVVNRLVGERLAAQREE | -0.627
65 | HMRSFGRLRRRDSGRWEAAYVGPDARLYRAPATFEAKDDAIAWLSAERRMIELDTWIKPHDRASR | -1.11
66 | HMGDERDRLLLARGKRIYQELIGSDRENVAAALREFEAVLAVNNRRAIHVMRQRLAELFGVYEEFLNEEFL | -2.77
67 | HMNQDIIEIGNNIQKIRKKNGISQSVLAEKIDVAGNSIYRMEGATTVMGVDKLINIADALNTSPMDILPAR | 0.13
68 | HMERPYNGKQMEYHEGGVEKKETLFVEGGLSRVIQWDESGQKRSEVNISPTGVRREQYWDSSGKAIAKPS | 0.228
